Laboratory results from PMC10397247.
Blank lines part the entries; values can stand above or below the binder they belong to.

How the values were obtained:
[1] = biological target: T1, P3mSN; assay: two-hybrid library CCNG1;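 note: natural log of median RNA to DNA barcode read ratio; higher means stronger binding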
T1 chain: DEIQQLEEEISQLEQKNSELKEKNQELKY

[2] = biological target: T2, P5mSN; assay: two-hybrid library CCNG1;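 note: natural log of median RNA to DNA barcode read ratio; higher means stronger binding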
T2 chain: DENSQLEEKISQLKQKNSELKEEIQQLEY

[3] = biological target: T3, P6mSN; assay: two-hybrid library CCNG1;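 note: natural log of median RNA to DNA barcode read ratio; higher means stronger binding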
T3 chain: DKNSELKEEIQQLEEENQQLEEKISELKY

[4] = biological target: T4, P7mSN; assay: two-hybrid library CCNG1;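 note: natural log of median RNA to DNA barcode read ratio; higher means stronger binding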
T4 chain: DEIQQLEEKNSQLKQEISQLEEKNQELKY

[5] = biological target: T5, P8mSN; assay: two-hybrid library CCNG1;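 note: natural log of median RNA to DNA barcode read ratio; higher means stronger binding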
T5 chain: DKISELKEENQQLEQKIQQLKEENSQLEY

[6] = biological target: T6, P9mSN; assay: two-hybrid library CCNG1;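 note: natural log of median RNA to DNA barcode read ratio; higher means stronger binding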
T6 chain: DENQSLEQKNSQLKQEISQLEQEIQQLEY

[7] = biological target: T7, 4H3632-bA; assay: two-hybrid library CCNG1
T7 chain: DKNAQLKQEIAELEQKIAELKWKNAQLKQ

[8] = biological target: T8, 4H496-bA; assay: two-hybrid library CCNG1
T8 chain: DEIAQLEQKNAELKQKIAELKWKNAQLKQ

[9] = biological target: T9, 4H233-AA; assay: two-hybrid library CCmax
T9 chain: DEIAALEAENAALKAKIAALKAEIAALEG

[10] = biological target: T10, 4H2512-AA; assay: two-hybrid library CCmax; conditions: mean of both orientations
T10 chain: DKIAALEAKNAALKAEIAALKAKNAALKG

[11] = biological target: T11, 4H2646-AA; assay: two-hybrid library CCmax; conditions: mean of both orientations
T11 chain: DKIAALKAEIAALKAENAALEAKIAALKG

[12] = biological target: T12, 4H2687-AA; assay: two-hybrid library CCmax; conditions: mean of both orientations
T12 chain: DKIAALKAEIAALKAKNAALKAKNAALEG

[13] = biological target: T13, 4H2705-AA; assay: two-hybrid library CCmax; conditions: mean of both orientations
T13 chain: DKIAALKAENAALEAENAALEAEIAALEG

[14] = biological target: T14, 4H2758-AA; assay: two-hybrid library CCmax; conditions: mean of both orientations
T14 chain: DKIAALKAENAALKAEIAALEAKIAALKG

[15] = biological target: T15, 4H278-AA; assay: two-hybrid library CCmax; conditions: mean of both orientations
T15 chain: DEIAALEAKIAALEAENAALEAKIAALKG

[16] = biological target: T16, 4H2873-AA; assay: two-hybrid library CCmax; conditions: mean of both orientations
T16 chain: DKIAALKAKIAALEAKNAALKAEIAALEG

[17] = biological target: T17, 4H2985-AA; assay: two-hybrid library CCmax; conditions: mean of both orientations
T17 chain: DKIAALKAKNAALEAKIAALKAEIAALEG

[18] = biological target: T18, 4H3134-AA; assay: two-hybrid library CCmax; conditions: mean of both orientations
T18 chain: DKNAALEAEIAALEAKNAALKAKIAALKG

[19] = biological target: T19, 4H3409-AA; assay: two-hybrid library CCmax
T19 chain: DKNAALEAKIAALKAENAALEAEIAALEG

[20] = biological target: T20, 4H3595-AA; assay: two-hybrid library CCmax
T20 chain: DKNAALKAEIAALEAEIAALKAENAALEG

[21] = biological target: T21, 4H3625-AA; assay: two-hybrid library CCmax; conditions: mean of both orientations
T21 chain: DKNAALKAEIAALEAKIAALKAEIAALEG

[22] = biological target: T22, 4H390-AA; assay: two-hybrid library CCmax; conditions: mean of both orientations
T22 chain: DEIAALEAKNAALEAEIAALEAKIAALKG

[23] = biological target: T23, 4H3940-AA; assay: two-hybrid library CCmax; conditions: mean of both orientations
T23 chain: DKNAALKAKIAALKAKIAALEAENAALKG

[24] = biological target: T24, 4H510-AA; assay: two-hybrid library CCmax; conditions: mean of both orientations
T24 chain: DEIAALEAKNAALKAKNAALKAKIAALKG

[25] = biological target: T25, 4H775-AA; assay: two-hybrid library CCmax; conditions: mean of both orientations
T25 chain: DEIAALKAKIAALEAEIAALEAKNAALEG

[26] = biological target: T26, 4H816-AA; assay: two-hybrid library CCmax; conditions: mean of both orientations
T26 chain: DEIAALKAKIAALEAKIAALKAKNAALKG

[27] = biological target: T27, 4H87-AA; assay: two-hybrid library CCmax
T27 chain: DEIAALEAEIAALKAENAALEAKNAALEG

- interaction score [1]: -0.0204
- interaction score [2]: -0.781
- interaction score [3]: -0.522
- interaction score [4]: -0.239
- interaction score [5]: -0.172
- interaction score [6]: -0.0425
B1: P3mSN (peptide)
chain: DEIQQLEEEISQLEQKNSELKEKNQELKY

- interaction score [7]: 1.23
- interaction score [8]: 0.728
B2: 4H3632-bA (peptide)
chain: DKNAQLKQEIAELEQKIAELKWKNAQLKQ

- interaction score [9]: 1.43
- interaction score [10]: 0.368
- interaction score [11]: 1.88
- interaction score [12]: -1.45
- interaction score [13]: 1
- interaction score [14]: 1.97
- interaction score [15]: 1.7
- interaction score [16]: -0.478
- interaction score [17]: 0.682
- interaction score [18]: -0.974
- interaction score [19]: 1.43
- interaction score [20]: 0.594
- interaction score [21]: -0.183
- interaction score [22]: 2.39
- interaction score [23]: -1.57
- interaction score [24]: -1.24
- interaction score [25]: -1.43
- interaction score [26]: -0.563
- interaction score [27]: -1.84
B3: 4H233-AA (peptide)
chain: DEIAALEAENAALKAKIAALKAEIAALEG
